Measurements reported in patent US8729232.

Assays:
[1] = target: S. coelicolor sulfatase motif peptide … with Arg6 substituted by alanine
[2] = target: S. coelicolor sulfatase motif peptide … with Thr3 substituted by alanine
[3] = target: S. coelicolor sulfatase motif peptide … with Pro4 substituted by alanine
[4] = target: S. coelicolor sulfatase motif peptide … with Leu9 substituted by alanine

B1: Streptomyces coelicolor formylglycine generating enzyme (Strep FGE, SCO7548), recombinant (protein)
chain: AVAAPSPAAAAEPGPAARPRSTRGQVRLPGGEFAMGDAFGEGYPADGETPVHTVRLRPFHIDETAVTNARFAAFVKATGHVTDAERFGSSAVFHLVVAAPDADVLGSAAGAPWWINVRGAHWRRPEGARSDITGRPNHPVVHVSWNDATAYARWAGKRLPTEAEWEYAARGGLAGRRYAWGDELTPGGRWRCNIWQGRFPHVNTAEDGHLSTAPVKSYRPNGHGLWNTAGNVWEWCSDWFSPTYYAESPTVDPHGPGTGAARVLRGGSYLCHDSYCNRYRVAARSSNTPDSSSGNLGFRCANDADLTSGSAAE
conversion of cysteine to FGly relative to the wild-type sequence [1]: substitution of Thr3, Pro4, Arg6, or Leu9 with alanine completely abrogated activity | conversion of cysteine to FGly relative to the wild-type sequence [2]: substitution of Thr3, Pro4, Arg6, or Leu9 with alanine completely abrogated activity | conversion of cysteine to FGly relative to the wild-type sequence [3]: substitution of Thr3, Pro4, Arg6, or Leu9 with alanine completely abrogated activity | conversion of cysteine to FGly relative to the wild-type sequence [4]: substitution of Thr3, Pro4, Arg6, or Leu9 with alanine completely abrogated activity
